From patent US20050202010A1, “Method of treatment and bioassay involving macrophage migration inhibitory factor (MIF) as cardiac-derived myocardial depressant factor” (priority 2003, published 2005)
Values joined by “and” are separate entries in the source; they are usually repeats but may differ in a detail not shown here. Equal values may be shown once.

Key:
C57BL/6 hearts = assay: Langendorff, rhMIF added to perfusate, C57BL/6 hearts; design: species or system mouse; LVP / TPP / RT90 / Max + d / Max − d: unit not given beside the values
CD74 KO mouse hearts = assay: Langendorff, rhMIF added to perfusate, CD74 KO mouse hearts; design: LVP / +dP/dt / −dP/dt / TPP / CVR: unit not given beside the values
[1] = system: spontaneously beating normal mouse hearts (endotoxin resistant C3H/HeJ); assay: Langendorff preparation, hearts perfused with rMIF (C3H/HeJ); conditions: 20 ng/ml rMIF, 1.5 ml/m
Description: Determination of cardiac function in response to rMIF. C57BL/6J and C3H/HeJ mice were used in the Langendorff assays. Briefly, 200 U heparin sulfate was given i.p., the mice sacrificed 20 m later, and the heart immediately removed and placed on ice in Krebs-Hanseleit Buffer ([…], 118 mM NaCl, 4.7 mM KCL, 1.2 mM KH2PO4, 1.2 mM MgSO4, 2.5 mM CaCl2, 11.1 mM glucose, pH 7.4, which was prepared fresh with demineralized, deionized water and bubbled with 95% O2 and 5% CO2 (PO2 590 mmHg, pCO2 38 mmHg)). The aorta was cannulated with PE50 tubing, the heart perfused in a retrograde manner through the aortic root with prefiltered, oxygenated Krebs-Hanseleit Buffer at a constant flow rate of 1.5 ml/m (T 37° C.) and a recirculating volume of 100 ml. The heart was placed in a water-jacketed chamber to maintain constant temperature and humidity. PE60 intratnedic polyethylene tubing was connected to a Statham pressure transducer inserted into the left ventricle (LV) to measure LV pressure. Temperature was monitored using a 27 G thertnistor needle inserted into the LV muscle. […] Following stabilization, LV pressure and its first derivative (dP/dt), heart rate, and coronary perfusion were measured simultaneously with a multichannel Grass 7D polygraph (Grass Instruments, Quincy, M A). Cardiac function for all hearts was determined by plotting peak systolic LV pressure and ±dP/dt,Ia, values against changes in coronary flow rate.
MIF induces systolic and diastolic cardiac dysfunction. […] Responses to MIF were determined in hearts from both C57BL/6J mice, and C3H/HeJ mice. C3H/HeJ mice are resistant to endotoxin (41-43), therefore controlling for the possibility that any depression observed might be due to trace endotoxin in the perfusate. Table 2 illustrates the responses of both mouse strains to retrograde aortic perfusion at 1.5 ml/m with control perfusate or perfusate containing 20 ng/ml recombinant MIF. Perfusion with MIF led to a significant decrease in LVP, +dP/dtmax, and −dP/dt max in both mouse strains. FIG. 4 illustrates the effect of MIF over a range of coronary flow rates. […]

[2] = C57BL/6 + rhMIF in perfusate, n = 3
[3] = C57BL/6 + rhMIF, single hearts by date and mean (x), n 3
[4] = C57BL/6 + rhMIF, single hearts by date and mean (x), n 3, mean
[5] = CD74 K/O + rhMIF, single hearts by date and mean (x), n 3
[6] = CD74 K/O + rhMIF, single hearts by date and mean (x), n 3, mean
[7] = CD74 KO + rhMIF in perfusate, n = 3

B1: rMIF: recombinant human macrophage migration inhibitory factor added to the heart perfusate at 20 ng/ml (protein, UniProt P14174 2-115, looked up)
Macrophage migration …: PMFIVNTNVPRASVPDGFLSELTQQLAQATGKPPQYIAVHVVPDQLMAFGGSSEPCALCSLHSIGKIGGAQNRSYSKLLCGLLAERLRISPDRVYINYYDMNAANVGWNNSTFA
B1 was tested, and the “Coronay Perfusion Pressue” value (C57BL/6 hearts; [2]) was 86.0 ± 23 mmHg, the “Coronay Vascular Resistance” value (C57BL/6 hearts; [2]) was 57.3 ± 7.7 mmHg and the “Heart Rate” value (C57BL/6 hearts; [2]) was 318 ± 2 bpm. For the same molecule, the “Left Ventricular Pressure” value (C57BL/6 hearts; [2]) was 52.7 ± 6.6 mmHg, the “Time to 90% Relaxation” value (C57BL/6 hearts; [2]) was 73.3 ± 4.4 ms and the “Time to Max +dP/dt” value (C57BL/6 hearts; [2]) was 47.0 ± 2.1 ms. For the same molecule, the “Time to Max −dP/dt” value (C57BL/6 hearts; [2]) was 49.0 ± 1.5 ms, the “Time to Peak Pressue” value (C57BL/6 hearts; [2]) was 74.0 ± 3.1 ms and the dP40 (C57BL/6 hearts; [2]) was 1200 ± 115 mmHg/sec. The “−dP/dt max” value (C57BL/6 hearts; [2]) was 1233 ± 159 mmHg/sec, the “+dP/dt” value (C57BL/6 hearts; [3]) was 1650 and 1100 and the DR (C57BL/6 hearts; [3]) was 1.1 and 1.158 and 1.2. The HR (C57BL/6 hearts; [3]) was 320 and 315, the LVP (C57BL/6 hearts; [3]) was 62 and 40 and 56 and the “Max + d” value (C57BL/6 hearts; [3]) was 48 and 50 and 43. The “Max − d” value (C57BL/6 hearts; [3]) was 52 and 48 and 47, the RT90 (C57BL/6 hearts; [3]) was 80 and 75 and 65 and the TPP (C57BL/6 hearts; [3]) was 72 and 80 and 70. The dP40 (C57BL/6 hearts; [3]) was 1400 and 1000 and 1200, the “−dP/dt” value (C57BL/6 hearts; [3]) was 950 and 1250 and the DR (C57BL/6 hearts; [4]) was 1.153. The HR (C57BL/6 hearts; [4]) was 318.3333, the LVP (C57BL/6 hearts; [4]) was 52.67 and the “Max + d” value (C57BL/6 hearts; [4]) was 47. The “Max − d” value (C57BL/6 hearts; [4]) was 49, the RT90 (C57BL/6 hearts; [4]) was 73.33 and the TPP (C57BL/6 hearts; [4]) was 74. The “−dP/dt” value (C57BL/6 hearts; [4]) was 1233.333, the “+dP/dt” value (CD74 KO mouse hearts; [5]) was 1800 and 1600 and 2200 and the CVR (CD74 KO mouse hearts; [5]) was 45 and 53 and 71. For the same molecule, the DR (CD74 KO mouse hearts; [5]) was 1.286 and 1.455 and 1.222, the HR (CD74 KO mouse hearts; [5]) was 320 and 325 and the LVP (CD74 KO mouse hearts; [5]) was 64 and 50 and 88. The “Max + d” value (CD74 KO mouse hearts; [5]) was 45 and 50 and 40, the “Max − d” value (CD74 KO mouse hearts; [5]) was 53 and 52 and the RT90 (CD74 KO mouse hearts; [5]) was 80 and 72. For the same molecule, the TPP (CD74 KO mouse hearts; [5]) was 70 and 75 and 63, the dP40 (CD74 KO mouse hearts; [5]) was 1900 and the “−dP/dt” value (CD74 KO mouse hearts; [5]) was 1400 and 1100 and 1800. For the same molecule, the “+dP/dt” value (CD74 KO mouse hearts; [6]) was 1866.667, the CVR (CD74 KO mouse hearts; [6]) was 56.33 and the DR (CD74 KO mouse hearts; [6]) was 1.321. For the same molecule, the HR (CD74 KO mouse hearts; [6]) was 321.6667, the LVP (CD74 KO mouse hearts; [6]) was 67.33 and the “Max − d” value (CD74 KO mouse hearts; [6]) was 52.67. It also gave an RT90 (CD74 KO mouse hearts; [6]) of 77.33, a TPP (CD74 KO mouse hearts; [6]) of 69.33 and a dP40 (CD74 KO mouse hearts; [6]) of 1666.667. The “−dP/dt” value (CD74 KO mouse hearts; [6]) was 1433.333, the “+dP/dt max” value (CD74 KO mouse hearts; [7]) was 1867 ± 176 mmHg/sec and the “Coronay Perfusion Pressue” value (CD74 KO mouse hearts; [7]) was 86.0 ± 23.6 mmHg. For the same molecule, the “Coronay Vascular Resistance” value (CD74 KO mouse hearts; [7]) was 56.3 ± 7.7 mmHg, the “Heart Rate” value (CD74 KO mouse hearts; [7]) was 322 ± 2 bpm and the “Left Ventricular Pressure” value (CD74 KO mouse hearts; [7]) was 67.3 ± 14.4 mmHg. The “Time to 90% Relaxation” value (CD74 KO mouse hearts; [7]) was 77.3 ± 2.7 ms, the “Time to Max +dP/dt” value (CD74 KO mouse hearts; [7]) was 45.0 ± 2.9 ms and the “Time to Max −dP/dt” value (CD74 KO mouse hearts; [7]) was 52.7 ± 0.3 ms. The “Time to Peak Pressue” value (CD74 KO mouse hearts; [7]) was 69.3 ± 3.5 ms, the dP40 (CD74 KO mouse hearts; [7]) was 1662 ± 120 mmHg/sec and the “−dP/dt max” value (CD74 KO mouse hearts; [7]) was 1433 ± 202 mmHg/sec. The “+dP/dt max” value ([1]; n = 7) was 1800 ± 106 mm Hg/see, the “−dP/dt max” value ([1]; n = 7) was 1343 ± 138 mm Hg/sec and the LVP ([1]; n = 7, mean peak) was 75.2 ± 5.5 mm Hg.
